Laboratory results from PMC9759531, “USP5-Beclin 1 axis overrides p53-dependent senescence and drives Kras-induced tumorigenicity” (Nature Communications, 2022).

Target: the molecule itself
Assay: SDS-PAGE without DTT (non-reducing) and western blot; purified recombinant His-USP5 or His-USP5^C195A in PBS treated with H2O2 for 10 min; SDS-PAGE with or without DTT (Fig. 5g, Supplementary Fig. S5e); western blot of H2O2-treated protein (Fig. 5k)

B1: His-USP5 (purified recombinant) (enzyme, human, UniProt P45974 1-858, looked up)
chain: MAELSEEALLSVLPTIRVPKAGDRVHKDECAFSFDTPESEGGLYICMNTFLGFGKQYVERHFNKTGQRVYLHLRRTRRPKEEDPATGTGDPPRKKPTRLAIGVEGGFDLSEEKFELDEDVKIVILPDYLEIARDGLGGLPDIVRDRVTSAVEALLSADSASRKQEVQAWDGEVRQVSKHAFSLKQLDNPARIPPCGWKCSKCDMRENLWLNLTDGSILCGRRYFDGSGGNNHAVEHYRETGYPLAVKLGTITPDGADVYSYDEDDMVLDPSLAEHLSHFGIDMLKMQKTDKTMTELEIDMNQRIGEWELIQESGVPLKPLFGPGYTGIRNLGNSCYLNSVVQVLFSIPDFQRKYVDKLEKIFQNAPTDPTQDFSTQVAKLGHGLLSGEYSKPVPESGDGERVPEQKEVQDGIAPRMFKALIGKGHPEFSTNRQQDAQEFFLHLINMVERNCRSSENPNEVFRFLVEEKIKCLATEKVKYTQRVDYIMQLPVPMDAALNKEELLEYEEKKRQAEEEKMALPELVRAQVPFSSCLEAYGAPEQVDDFWSTALQAKSVAVKTTRFASFPDYLVIQIKKFTFGLDWVPKKLDVSIEMPEELDISQLRGTGLQPGEEELPDIAPPLVTPDEPKGSLGFYGNEDEDSFCSPHFSSPTSPMLDESVIIQLVEMGFPMDACRKAVYYTGNSGAEAAMNWVMSHMDDPDFANPLILPGSSGPGSTSAAADPPPEDCVTTIVSMGFSRDQALKALRATNNSLERAVDWIFSHIDDLDAEAAMDISEGRSAADSISESVPVGPKVRDGPGKYQLFAFISHMGTSTMCGHYVCHIKKEGRWVIYNDQKVCASEKPPKDLGYIYFYQRVAS
notes: USP5; Treated with H2O2 before the dimerisation assays; also called recombinant USP5; WT USP5; source: E. coli BL21(DE3), purified (HisTrap HP, Superdex 200 increase)
stoichiometry N: 2
